We go through six molecules from publication PMC3510508, “Rbg1–Tma46 dimer structure reveals new functional domains and their role in polysome recruitment” (Nucleic Acids Research, 2012).

Substrate in data set [1]: Nc1nc2c(ncn2[C@@H]2O[C@H](COP(=O)(O)OP(=O)(O)OP(=O)(O)O)[C@@H](O)[C@H]2O)c(=O)[nH]1
Description: malachite green phosphate release. The note with it: 100 mM KCl, 50 mM Tris pH 7.5, 5 mM MgCl2, 37°C, 1 h, 20 μM protein. It is filed as biochemical, Saccharomyces cerevisiae.

Substrate in data set [2]: Nc1nc2c(ncn2[C@@H]2O[C@H](COP(=O)(O)OP(=O)(O)OP(=O)(O)O)[C@@H](O)[C@H]2O)c(=O)[nH]1
Description: malachite green phosphate release. It is filed as biochemical, Saccharomyces cerevisiae. The settings on record: 100 mM KCl, 50 mM Tris pH 7.5, 5 mM MgCl2, 37°C, 1 h, 20 μM protein. From the text: malachite green phosphate release on Rbg1fl–Tma46_205–345
This is another data set of the same source.

Substrate in data set [3]: Nc1nc2c(ncn2[C@@H]2O[C@H](COP(=O)(O)OP(=O)(O)OP(=O)(O)O)[C@@H](O)[C@H]2O)c(=O)[nH]1
Description: malachite green phosphate release. The settings on record: 100 mM KCl, 50 mM Tris pH 7.5, 5 mM MgCl2, 37°C, 1 h, 20 μM protein. The class given is biochemical, Saccharomyces cerevisiae. From the text: malachite green phosphate release on Rbg1fl–Tma46_239–345 (Tma46Δα1)
This is another data set of the same source.

Data set [4] addresses T1, 6His-tagged full-length Rbg1 (yeast) (UniProt P39729).
T1 sequence: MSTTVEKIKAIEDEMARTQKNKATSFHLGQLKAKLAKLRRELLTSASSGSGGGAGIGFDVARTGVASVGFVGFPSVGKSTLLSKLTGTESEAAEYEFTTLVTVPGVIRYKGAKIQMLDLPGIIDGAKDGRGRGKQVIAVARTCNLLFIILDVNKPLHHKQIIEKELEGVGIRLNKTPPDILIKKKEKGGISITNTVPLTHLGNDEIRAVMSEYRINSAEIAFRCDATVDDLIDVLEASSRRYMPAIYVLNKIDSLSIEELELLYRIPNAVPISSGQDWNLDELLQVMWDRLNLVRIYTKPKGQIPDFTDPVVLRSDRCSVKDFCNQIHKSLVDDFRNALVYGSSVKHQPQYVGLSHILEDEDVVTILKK

B1: Rbg1Δ175–243+Gly–Tma46_205–345 (ΔS5D2L) (Saccharomyces cerevisiae S288C; DEL175-243/INS174G) (protein)
chain: MSTTVEKIKAIEDEMARTQKNKATSFHLGQLKAKLAKLRRELLTSASSGSGGGAGIGFDVARTGVASVGFVGFPSVGKSTLLSKLTGTESEAAEYEFTTLVTVPGVIRYKGAKIQMLDLPGIIDGAKDGRGRGKQVIAVARTCNLLFIILDVNKPLHHKQIIEKELEGVGIRLNGPAIYVLNKIDSLSIEELELLYRIPNAVPISSGQDWNLDELLQVMWDRLNLVRIYTKPKGQIPDFTDPVVLRSDRCSVKDFCNQIHKSLVDDFRNALVYGSSVKHQPQYVGLSHILEDEDVVTILKK
notes: 6His-tagged Rbg1 with S5D2L domain (175-243) replaced by one Gly, co-expressed in E. coli with Tma46 205-345; with Translation machinery-associated protein 46
What is called Km is the substrate concentration at which the rate is half of its maximum. The Vmax is the top rate of the reaction or transport when substrate is in excess. In general, kcat refers to the maximal rate divided by the concentration of active sites. As for B1, in data set [1], the Km is 221.5 ± 159.2 µM, the Vmax is 1.57e-05 µmol/min/mg and the kcat came out at 1e-05 s⁻¹.

B2: Rbg1fl–Tma46_205–345 (Saccharomyces cerevisiae S288C) (protein)
chain: MSTTVEKIKAIEDEMARTQKNKATSFHLGQLKAKLAKLRRELLTSASSGSGGGAGIGFDVARTGVASVGFVGFPSVGKSTLLSKLTGTESEAAEYEFTTLVTVPGVIRYKGAKIQMLDLPGIIDGAKDGRGRGKQVIAVARTCNLLFIILDVNKPLHHKQIIEKELEGVGIRLNKTPPDILIKKKEKGGISITNTVPLTHLGNDEIRAVMSEYRINSAEIAFRCDATVDDLIDVLEASSRRYMPAIYVLNKIDSLSIEELELLYRIPNAVPISSGQDWNLDELLQVMWDRLNLVRIYTKPKGQIPDFTDPVVLRSDRCSVKDFCNQIHKSLVDDFRNALVYGSSVKHQPQYVGLSHILEDEDVVTILKK
notes: 6His-tagged full-length Rbg1 (N-terminal tag) co-expressed in E. coli with Tma46 residues 205-345; heterodimer; with Translation machinery-associated protein 46
As to B2, in data set [2], the Km amounted to 304.1 ± 32.5 µM, the Vmax is 5.93e-05 µmol/min/mg and the kcat was 5.67e-05 s⁻¹.

B3: Rbg1fl–Tma46_239–345 (Tma46Δα1) (Saccharomyces cerevisiae S288C) (protein)
chain: MSTTVEKIKAIEDEMARTQKNKATSFHLGQLKAKLAKLRRELLTSASSGSGGGAGIGFDVARTGVASVGFVGFPSVGKSTLLSKLTGTESEAAEYEFTTLVTVPGVIRYKGAKIQMLDLPGIIDGAKDGRGRGKQVIAVARTCNLLFIILDVNKPLHHKQIIEKELEGVGIRLNKTPPDILIKKKEKGGISITNTVPLTHLGNDEIRAVMSEYRINSAEIAFRCDATVDDLIDVLEASSRRYMPAIYVLNKIDSLSIEELELLYRIPNAVPISSGQDWNLDELLQVMWDRLNLVRIYTKPKGQIPDFTDPVVLRSDRCSVKDFCNQIHKSLVDDFRNALVYGSSVKHQPQYVGLSHILEDEDVVTILKK
notes: 6His-tagged full-length Rbg1 with Tma46 residues 239-345 (lacks helix α1), expressed in E. coli; with Translation machinery-associated protein 46
Turning to B3, in data set [3], the Km came out at 191.2 ± 26.6 µM, the Vmax worked out at 3.7e-05 µmol/min/mg and the kcat was 3.33e-05 s⁻¹.

B4: Tma46_(205–345 I241A) (domain or fragment)
chain: EQKRLERESLEKQPKITLEEFIETERGKLDKSKLTPATIANFAQWKKDHVIAKINAEKKLSSKRKPTGREIILKMSAENKSFETDNADMPDDVTQGSAWDLTEFTDALKKADHQDDGGIKDYGDGSNPTFDIKKANSATLA
In data set [4], B4 showed a GTP hydrolysis (Malachite green), Vmax (nmol min^−1 mg^−1) of 0.0406 and a GTP hydrolysis (Malachite green), kcat of 3.83e-05 s⁻¹.

B5: Tma46_(205–345 I241A, F246A) (domain or fragment)
chain: EQKRLERESLEKQPKITLEEFIETERGKLDKSKLTPATIANAAQWKKDHVIAKINAEKKLSSKRKPTGREIILKMSAENKSFETDNADMPDDVTQGSAWDLTEFTDALKKADHQDDGGIKDYGDGSNPTFDIKKANSATLA
B5: in data set [4], the GTP hydrolysis (Malachite green), Vmax (nmol min^−1 mg^−1) was 0.0288 and the GTP hydrolysis (Malachite green), kcat came out at 2.83e-05 s⁻¹.

B6: Tma46_(205–345 W249A K250E) (domain or fragment)
chain: EQKRLERESLEKQPKITLEEFIETERGKLDKSKLTPITIANFAQAEKDHVIAKINAEKKLSSKRKPTGREIILKMSAENKSFETDNADMPDDVTQGSAWDLTEFTDALKKADHQDDGGIKDYGDGSNPTFDIKKANSATLA
With B6, in data set [4], the GTP hydrolysis (Malachite green), Vmax (nmol min^−1 mg^−1) stood at 0.0345 and the GTP hydrolysis (Malachite green), kcat worked out at 3.33e-05 s⁻¹.
